Laboratory results as given in US20100015126A1, “Methods of Binding of Cross-Beta Structures By Chaperones” (priority 2006, published 2010).

What was measured:
[1] = target: T1, human BiP (Homo sapiens, UniProt P11021); assay: Competition ELISA: BiP binding to misfolded proteins under influence of crossbeta binding compounds; conditions: for Influence on interaction of BiP with misfolded proteins comprising crossbeta structure (summary in words): BiP binding without compound set to 100%
T1 construct: The human BiP gene except the signal peptide encoding region was obtained from Geneart (Germany); linker […]; made in house; host or cells: HEK 293E cells, transient transfection, PABC674 vector; secreted into the medium
T1 sequence (P11021 19-654): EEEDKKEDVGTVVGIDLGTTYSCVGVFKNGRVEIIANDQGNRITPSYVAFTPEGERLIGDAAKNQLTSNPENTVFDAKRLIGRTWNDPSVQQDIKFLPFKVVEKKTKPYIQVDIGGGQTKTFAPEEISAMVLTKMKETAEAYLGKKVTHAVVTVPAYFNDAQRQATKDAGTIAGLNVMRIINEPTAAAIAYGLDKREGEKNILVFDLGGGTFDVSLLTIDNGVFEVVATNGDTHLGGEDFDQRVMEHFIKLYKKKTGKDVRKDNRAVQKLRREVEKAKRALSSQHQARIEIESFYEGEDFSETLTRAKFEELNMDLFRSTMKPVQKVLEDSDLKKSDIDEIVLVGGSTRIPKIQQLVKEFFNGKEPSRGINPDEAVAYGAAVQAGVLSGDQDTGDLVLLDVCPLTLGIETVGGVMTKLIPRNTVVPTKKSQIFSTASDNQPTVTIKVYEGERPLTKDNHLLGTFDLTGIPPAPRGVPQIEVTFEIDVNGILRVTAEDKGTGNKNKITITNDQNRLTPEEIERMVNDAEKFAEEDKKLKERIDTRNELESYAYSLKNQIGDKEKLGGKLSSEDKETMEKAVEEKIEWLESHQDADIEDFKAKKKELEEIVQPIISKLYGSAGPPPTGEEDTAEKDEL
How it was run: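 Misfolded protein ligands were coated in pH 9.6 bicarbonate, typically at 5 μg/ml. A fixed sub-optimal BiP concentration was incubated for 1 h at room temperature with crossbeta-binding compound series, and bound BiP was detected by peroxidase antibodies with TMB read at 450 nm. Signals were background-subtracted, and binding without compound was set to 100%.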

[2] = target: T1, human BiP; assay: ELISA: binding of BiP in cell culture supernatant to immobilized misfolded proteins; conditions: undiluted supernatant of 293E cells overexpressing BiP; ligands coated at 5 μg/ml, Aβ 20 μg/ml
Description: Binding of BiP to Misfolded Proteins with Crossbeta Structure
Proteins at 5 μg/ml were coated for 1 h at room temperature with agitation, in Microlon high-binding ELISA plates (Greiner) in 50 mM NaHCO3 pH 9.6, except for Aβ that was coated at 20 μg/ml. Buffer was coated as negative control. A twofold dilutions series of cell culture supernatant of HEK 293E cells overexpressing BiP was also coated to the plate for anti-FLAG-tag antibody control purposes. Plates were washed and blocked with ½*Blocking reagent (Roche). Undiluted cell culture supernatant enriched with 0.1% Tween20 was added to the wells with immobilized protein ligands and incubated for 1 h at room temperature with agitation. Medium was discarded and the plate was washed with PBS with 0.1% v/v Tween20. Mouse monoclonal anti-FLAG-tag antibody (Sigma, A8592, anti-FLAG M2PO conjugate) was diluted 1000× in PBS/0.1% Tween20 and added to all wells, including those that are coated with cell culture supernatant. After a 1 h incubation at room temperature with agitation and after washing, wells were overlayed with 3000× diluted RAMPO (DAKOCytomation) in PBS/0.1% Tween20. After 30 minutes the plate was washed and bound peroxidase was visualised with tetramethylbenzidine (TMB, #45.103.20/#45.014.01, Biosource, Nivelles, Belgium). The reaction was stopped after 5 minutes with 10% H2SO4 in H2O. Plates were read at 450 nm.

[3] = target: T1, human BiP; assay: ELISA: inhibition of BiP binding to crossbeta structure with tPA; conditions: threefold diluted supernatant; 10 mM ε-amino caproic acid; no competitor
Description: The threefold diluted cell supernatants were applied to the ELISA plate in duplicates and BiP binding was subsequently measured as described above. Coat efficiency was checked with specific anti-AGE antibody, anti-albumin antibody and anti-Hb antibody.

[4] = fixed sub-optimal BiP concentration, 10 mM ε-amino caproic acid

Question: What does the source list for GSNKGAIIGLM [6BB6, Human Aβ (25-35)]?
Answer: Influence of K2P tPA on interaction of BiP with misfolded protein [1, 4]: −; Influence of tPA on interaction of BiP with misfolded protein [1, 4]: ↓ (a ↓ sign refers to inhibited abolished binding of BiP); Influence of IgIV on interaction of BiP with misfolded protein ([1]; fixed sub-optimal BiP concentration, IgIV Octagam series): ↓ (a ↓ sign refers to inhibited abolished binding of BiP); Influence of Congo red on interaction of BiP with misfolded protein ([1]; fixed sub-optimal BiP concentration, concentration series of Congo red): ↓ (a ↓ sign refers to inhibited abolished binding of BiP); Influence of ThS on interaction of BiP with misfolded protein ([1]; fixed sub-optimal BiP concentration, concentration series of ThS): −

Question: How did the “Influence on interaction of BiP with misfolded proteins comprising crossbeta structure (summary in words)” value [1] turn out when `Cc1ccc2c(c1)sc(-c1ccc(N(C)C)cc1)[n+]2C.[Cl-]` [ThT, Thioflavin T] was run?
Answer: can either potentiate BiP binding, or inhibit

Question: Which “Binding of BiP to immobilized protein (ELISA)” value [2] does the source give for “native BSA: non-modified bovine serum albumin control” here?
Answer: not

Question: What about the “Binding of BiP to coated ligand” value [3] of the same molecule?
Answer: hardly

Question: Which results are given for BSA-AGE?
Answer: Binding of BiP to immobilized protein (ELISA) [2]: binds; Binding of BiP to coated ligand [3]: binds

Question: Which “Binding of BiP to coated ligand” value [3] does the source give for “Hb: non-modified human haemoglobin control” here?
Answer: some binding

Question: How did the “Binding of BiP to immobilized protein (ELISA)” value [2] turn out when “HbAGE: human haemoglobin glycated with glucose-6-phosphate for 75 weeks” was run?
Answer: binds

Question: For `Nc1c(/N=N/c2ccc(-c3ccc(/N=N/c4cc(S(=O)(=O)O)c5ccccc5c4N)cc3)cc2)cc(S(=O)(=O)O)c2ccccc12` [Congo red], which “Influence on interaction of BiP with misfolded proteins comprising crossbeta structure (summary in words)” value [1] is on record?
Answer: general inhibitors
